Common to all, as to test: peptide ELISA, 0.5 µg/well scFv
(In general: ELISA stands for enzyme-linked immunosorbent assay.)

The target in assay [1] is PSGL-1 (residues 42-58) derived peptide, sulfated at 3rd tyrosine position.
For assay [2], the target named is CCR5 (residues 1-18) derived peptide, sulfated at 3rd tyrosine position.
For assay [3], the target named is PSGL-1 (residues 42-58) derived peptide, sulfated at 1st tyrosine position.
In assay [4] the target is GPIb (residues 268-285) derived peptide, sulfated at 3rd tyrosine position.
Assay [5] has as its target CCR5 (residues 1-18) derived peptide, sulfated at 1st tyrosine position.
Assay [6] addresses CCR5 (residues 1-18) derived peptide, sulfated at 2nd tyrosine position.
The target in assay [7] is PSGL-1 (residues 42-58) derived peptide, non-sulfated.
Assay [8] concerns the target GPIb (residues 268-285) derived peptide, non-sulfated.
The target of assay [9] is GPIb (residues 268-285) derived peptide, sulfated at 1st tyrosine position.
Assay [10] deals with PSGL-1 (residues 42-58) derived peptide, sulfated at 2nd tyrosine position.
Assay [11] has as its target CCR5 (residues 1-18) derived peptide, non-sulfated.

These results are taken from patent publication US20080274100A1.

Take N06 scFv (negative control): the ELISA read-out at 450 nm in assay [1] amounted to 0.06 OD 450 nm; in assay [2], 0.06 OD 450 nm; in assay [3], 0.06 OD 450 nm; in assay [4], 0.07 OD 450 nm; in [5], 0.06 OD 450 nm; in assay [6], 0.06 OD 450 nm. The ELISA read-out at 450 nm in [7] amounted to 0.06 OD 450 nm; in [8] it was 0.07 OD 450 nm; in [9], 0.07 OD 450 nm; in assay [10] it was 0.06 OD 450 nm; in assay [11], 0.06 OD 450 nm.
